Results: patent US20120039810, “APTAMER-CONTAINING COMPOSITIONS AND METHODS FOR TARGETING E-SELECTIN” (published 2012)

Key:
L-selectin = target: T1, L-selectin (Homo sapiens, UniProt P14151 P14151:39-332); assay: EMSA; binding not detectable under the same conditions
T1 sequence: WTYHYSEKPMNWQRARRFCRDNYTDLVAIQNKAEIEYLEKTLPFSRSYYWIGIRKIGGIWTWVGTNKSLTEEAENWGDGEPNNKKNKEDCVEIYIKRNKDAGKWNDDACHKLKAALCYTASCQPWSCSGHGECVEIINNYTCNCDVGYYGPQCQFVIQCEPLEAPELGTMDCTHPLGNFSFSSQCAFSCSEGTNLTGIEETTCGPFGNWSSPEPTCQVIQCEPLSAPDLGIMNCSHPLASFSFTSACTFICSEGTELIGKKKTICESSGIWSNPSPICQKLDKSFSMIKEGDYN
Text: Protein-bound TA and unbound TA were quantified using ImageJ software. The binding curves were generated assuming a single binding site curve fits using the Graph Pad Prism software.
To evaluate the binding affinity of ESTA-1 to all selectins, an electrophoretic mobility shift assay (EMSA) was utilized. To determine the binding constant, fixed amounts of ESTA-1 was mixed with increasing amounts of recombinant protein (E-, P-, and L-selectin). ESTA-1 (4.6 pmoles) and recombinant human selectin protein (up to 19 pmoles) were incubated and subjected to electrophoresis at 4° C. The gels were stained with SYBR Gold nucleic acid stain and densitometric analysis of the unbound ESTA-1 was plotted using E-selectin or P-selectin recombinant protein. […] As expected, the amounts of ESTA-1/E-selectin complexes reached saturation at a molar ratio of 1:1, when both of the binding molecules are at a concentration of 500 nM. Based on the densitometric analysis, the binding constant calculated for the ESTA-1 binding to E-selectin was 47 nM (FIG. 11A). […] ESTA-1 binding to L-selectin was not detectable under the same conditions. […] To further validate the binding affinity of ESTA-1 under biological conditions, different concentrations of ESTA-1 (50-200 nM) were incubated with ES-Endo cells induced with doxycycline. […] ESTA-1 binding was analyzed by fluorescent imaging.

[1] = target: T2, E-selectin on ES-Endo cells (Tet-on HMVEC) (UniProt P16581 P16581:22-610); assay: cell_activity; inhibition of HL-60 adhesion to ES-Endo, 4 C; 80% at 100 nM
T2 sequence: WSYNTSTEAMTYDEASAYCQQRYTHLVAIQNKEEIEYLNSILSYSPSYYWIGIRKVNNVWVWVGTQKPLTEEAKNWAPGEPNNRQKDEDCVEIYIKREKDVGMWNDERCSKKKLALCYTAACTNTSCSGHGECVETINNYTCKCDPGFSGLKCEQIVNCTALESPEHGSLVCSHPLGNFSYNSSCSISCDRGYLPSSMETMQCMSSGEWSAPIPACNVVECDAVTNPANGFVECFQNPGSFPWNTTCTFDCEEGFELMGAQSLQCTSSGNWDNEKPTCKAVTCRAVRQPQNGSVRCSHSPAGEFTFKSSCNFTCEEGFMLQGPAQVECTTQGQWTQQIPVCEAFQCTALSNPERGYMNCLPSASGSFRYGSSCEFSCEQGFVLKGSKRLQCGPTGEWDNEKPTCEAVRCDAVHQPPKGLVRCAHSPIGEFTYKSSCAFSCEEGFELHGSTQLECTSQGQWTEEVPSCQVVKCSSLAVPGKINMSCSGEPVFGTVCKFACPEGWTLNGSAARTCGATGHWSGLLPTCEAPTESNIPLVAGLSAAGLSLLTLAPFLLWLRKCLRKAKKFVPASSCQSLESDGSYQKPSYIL
Experimental: On the basis of specific binding of ESTA-1 to E-selectin, a study was done to determine the effect of ESTA-1 on adhesion of sLe^X positive cells to endothelial cells. Confluent E-selectin expressing ES-Endo cells were incubated with doxycycline for 5 hours followed by ESTA-1 (50 nM, 100 nM) for 20 minutes. HL-60 cells a human promyelomonocytic cell line, or cells from two breast cancer cell lines (MDA-MB-231 and MDA-MB-468: 10^5 cells) suspended in RPMI containing 1% FBS were added to ES-Endo and incubated at 4° C. for 30 minutes with mild agitation. The unbound cells were washed off with RPMI containing 1% FBS. The number of cells that adhered to the ES-Endo was counted on at least 3 random areas using a light microscope (final magnification 100×) and expressed as the mean of triplicate experiments. […] HL-60 cell adhesion to ES-Endo increased by 5-fold when E-selectin expression was induced by doxycycline (FIG. 12A). Pretreatment of the E-selectin expressing ES-Endo with ESTA-1 inhibited HL-60 adhesion by 80% at 100 nM ESTA-1 (FIG. 12A). […] Lastly, we tested cytotoxicity associated with ESTA-1 treatment in ES-Endo cells. ES-Endo cells were first incubated with doxycycline for 5 hours and then with increasing concentration of ESTA-1 (up to 200 nM) for 48 hours. MTT assay was performed to test cell viability.

P-selectin = P-selectin (Homo sapiens, UniProt P16109 P16109:42-771); assay: EMSA; estimated; PBS with Ca2+ and Mg2+, 5 mM MgCl2, 1% NP40
P-selectin, sequence (P16109 42-771, one chain of several): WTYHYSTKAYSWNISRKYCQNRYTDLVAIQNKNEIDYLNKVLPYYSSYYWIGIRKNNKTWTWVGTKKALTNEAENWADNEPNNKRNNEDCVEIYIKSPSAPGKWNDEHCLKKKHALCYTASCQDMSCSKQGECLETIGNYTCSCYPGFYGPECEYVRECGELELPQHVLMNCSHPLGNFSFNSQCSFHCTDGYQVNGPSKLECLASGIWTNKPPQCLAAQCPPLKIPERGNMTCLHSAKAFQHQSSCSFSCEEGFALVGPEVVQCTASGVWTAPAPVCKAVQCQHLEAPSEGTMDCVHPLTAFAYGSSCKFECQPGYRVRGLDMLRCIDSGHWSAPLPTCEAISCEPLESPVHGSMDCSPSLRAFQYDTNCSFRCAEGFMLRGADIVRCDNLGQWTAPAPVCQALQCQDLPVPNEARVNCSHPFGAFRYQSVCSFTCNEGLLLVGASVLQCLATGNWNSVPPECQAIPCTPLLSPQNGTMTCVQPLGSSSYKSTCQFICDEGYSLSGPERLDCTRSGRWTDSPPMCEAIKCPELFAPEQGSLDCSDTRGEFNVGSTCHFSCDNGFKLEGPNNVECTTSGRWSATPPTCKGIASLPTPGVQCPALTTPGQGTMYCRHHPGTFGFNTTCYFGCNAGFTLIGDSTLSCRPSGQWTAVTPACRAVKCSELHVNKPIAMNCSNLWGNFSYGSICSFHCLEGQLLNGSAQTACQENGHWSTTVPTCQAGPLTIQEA
Experimental: Equal amounts of ESTA-1 (4.6 pmoles) were incubated with increasing concentrations of the recombinant selectin proteins (0-19 pmoles) in a total volume of 10.5 μl of PBS supplemented with Ca2+ and Mg2+, 5 mM MgCl2, and 1% NP40 at room temperature for 45 minutes. The reaction mixtures were loaded onto 6% polyacrylamide tris borate gels and run at 100 V for 90 minutes at 4° C. The gel was stained with SYBR Gold nucleic acid staining dye and visualized using the Fluor Chem 8800 chemimager (Alpha Innotech). Protein-bound TA and unbound TA were quantified using ImageJ software. The binding curves were generated assuming a single binding site curve fits using the Graph Pad Prism software.
To evaluate the binding affinity of ESTA-1 to all selectins, an electrophoretic mobility shift assay (EMSA) was utilized. To determine the binding constant, fixed amounts of ESTA-1 was mixed with increasing amounts of recombinant protein (E-, P-, and L-selectin). ESTA-1 (4.6 pmoles) and recombinant human selectin protein (up to 19 pmoles) were incubated and subjected to electrophoresis at 4° C. The gels were stained with SYBR Gold nucleic acid stain and densitometric analysis of the unbound ESTA-1 was plotted using E-selectin or P-selectin recombinant protein. […] Based on the densitometric analysis, the binding constant calculated for the ESTA-1 binding to E-selectin was 47 nM (FIG. 11A). […]

B1: ESTA-1 (TA-1) (ssDNA)
DNA: CGCTCGGATCGATAAGCTTCGATCCCACTCTCCCGTTCACTTCTCCTCACGTCACGGATCCTCTAGAGCACTG
modifications: 5'-monothiophosphate (Rp) on all dA except in primer-binding region
Which results are given for B1?
binding result (L-selectin): no binding; IC50 [1]: ~0.063 µM; Kd (P-selectin): ~13 µM
